Measured values taken from article PMC2691592, “Caenorhabditis elegans Protein Arginine Methyltransferase PRMT-5 Negatively Regulates DNA Damage-Induced Apoptosis” (PLoS Genetics, 2009).

Target: T1, PRMT-5His6 (C. elegans, UniProt P46580 1-734)
T1 construct: C. elegans protein arginine methyltransferase PRMT-5, open reading frame C34E10.5, a protein of 734 amino acids; cDNA of prmt-5 cloned into pET21a; also called purified PRMT-5His6 protein; recombinant PRMT-5
Assay: pull-down; GST-CEP-1 or GST immobilised on glutathione sepharose beads, incubated with purified PRMT-5His6 for more than 2 h; bound PRMT-5His6 detected by immunoblot with anti-PRMT-5 antibody
Conditions: both partners purified

T1 sequence (P46580 whole entry): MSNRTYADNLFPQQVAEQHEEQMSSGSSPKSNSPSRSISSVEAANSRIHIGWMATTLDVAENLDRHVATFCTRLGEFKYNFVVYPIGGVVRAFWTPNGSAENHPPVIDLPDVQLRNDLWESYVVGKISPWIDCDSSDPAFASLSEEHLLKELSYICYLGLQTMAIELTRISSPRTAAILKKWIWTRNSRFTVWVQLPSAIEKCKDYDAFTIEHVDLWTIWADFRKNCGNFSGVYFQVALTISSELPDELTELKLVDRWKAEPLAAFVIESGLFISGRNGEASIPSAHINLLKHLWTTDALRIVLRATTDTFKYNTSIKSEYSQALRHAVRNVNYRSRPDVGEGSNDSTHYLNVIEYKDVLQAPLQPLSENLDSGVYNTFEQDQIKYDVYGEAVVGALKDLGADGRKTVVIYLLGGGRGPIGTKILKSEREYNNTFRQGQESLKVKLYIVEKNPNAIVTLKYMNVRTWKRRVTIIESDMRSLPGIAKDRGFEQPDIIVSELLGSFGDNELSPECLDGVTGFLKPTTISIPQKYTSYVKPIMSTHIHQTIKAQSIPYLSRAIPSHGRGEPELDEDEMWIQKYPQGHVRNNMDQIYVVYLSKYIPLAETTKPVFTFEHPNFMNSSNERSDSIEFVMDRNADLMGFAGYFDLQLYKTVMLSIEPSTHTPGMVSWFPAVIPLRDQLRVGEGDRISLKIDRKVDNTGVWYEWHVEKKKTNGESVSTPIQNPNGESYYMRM

binding result: binds
B1: GST-CEP-1 (natural protein, C. elegans, UniProt Q20646 1-644, looked up)
chain: MEPDDSQLSDILKDARIPDSQDIGVNLTQNLSFDTVQKMIDGVFTPIFSQGTEDSLEKDILKTPGISTIYNGILGNGEETKKRTPKISDAFEPDLNTSGDVFDSDKSEDGLMNDESYLSNTTLSQVVLDSQKYEYLRVRTEEEQQLVIEKRARERFIRKSMKIAEETALSYENDGSRELSETMTQKVTQMDFTETNVPFDGNDESSNLAVRVQSDMNLNEDCEKWMEIDVLKQKVAKSSDMAFAISSEHEKYLWTKMGCLVPIQVKWKLDKRHFNSNLSLRIRFVKYDKKENVEYAIRNPRSDVMKCRSHTEREQHFPFDSFFYIRNSEHEFSYSAEKGSTFTLIMYPGAVQANFDIIFMCQEKCLDLDDRRKTMCLAVFLDDENGNEILHAYIKQVRIVAYPRRDWKNFCEREDAKQKDFRFPELPAYKKASLESINIKQEVNLENMFNVTNTTAQMEPSTSYSSPSNSNNRKRFLNECDSPNNDYTMMHRTPPVTGYASRLHGCVPPIETEHENCQSPSMKRSRCTNYSFRTLTLSTAEYTKVVEFLAREAKVPRYTWVPTQVVSHILPTEGLERFLTAIKAGHDSVLFNANGIYTMGDMIREFEKHNDIFERIGIDSSKLSKYYEAFLSFYRIQEAMKLPK
notes: C. elegans p53 homolog CEP-1; called the full-length GST-CEP-1 fusion protein; pGEX vectors put GST at the N-terminus; also called GST-CEP-1 fusion protein; full-length GST-CEP-1
